Experimental data reported in paper PMC8040517 (The Journal of Experimental Medicine, 2021).

Legend:
Test in all cases: crystal structure
Details in all cases: both partners purified
[1] = target: TBEV^WE EDIII-His-Avitag (envelope domain III of tick-borne encephalitis virus, Western European subtype, … (Tick-borne encephalitis virus Western …, UniProt P14336))
[2] = target: TBEV^FE EDIII-His-Avitag (envelope domain III of tick-borne encephalitis virus, Far Eastern subtype, strain … (Tick-borne encephalitis virus Far …, UniProt P07720, strain))
[3] = target: TBEV^Si EDIII (envelope domain III of tick-borne encephalitis virus, Siberian subtype, strain Vasilchenko), … (Tick-borne encephalitis virus Siberian …, UniProt Q9WBS4, strain)

Measured: binding result

B1: T025 Fab (antigen-binding fragment of human antibody T025, IGVH3–30/IGVK3–15) (Fab, V domains shown)
VH: QVQLVESGGGVVQPGRSLRLSCAASGFTFSNYGMHWVRQAPGKGLDWVAVISYDAISKSYADSVEGRFTISRDNSKNTLYLQMNSLRAEDSAVYYCAKSPTAIDPPFDYWGQGTLVTVSS
VL: EIVMTQSPATLSVSPGERATLSCWASQSVSSNLAWYQQKPGQAPRLLIYGASTRATGIPARFSASGSGTEFTLTISSLQSEDFAVYYCQQYNNWPPRFGQGTKVEIK
notes: not shown: 6XHis, C-terminal, kept
binds: all assays above
